Among the data in publication PMC13326754 are binding signal values, retold here.

A value given as a limit tells only on which side of the number the result lay.

Data set [1] relates to U2AF1beta;U2AF2beta (Fritillaria borealis;Fritillaria borealis). The data set can be described thus: EMSA. The conditions noted are these: 330 nM U2AF; never exceeded 5% bound; EMSA: 20 mM Hepes, 0.1 M NaCl, 5% glycerol, 0.5% Tween-20, pH 7.8, 50 ng/ul BSA, 0.5 mM TCEP, 0.5 mM EDTA; 1 h on ice; 6% PAGE 0.5x TBE at 4 C. Background: Mobility shift assays separate free from complexed probe on a gel.

Data set [2] relates to U2AF1alpha;U2AF2beta (Fritillaria borealis;Fritillaria borealis). The data set can be described thus: EMSA. The conditions noted are these: 330 nM U2AF; never exceeded 5% bound; EMSA: 20 mM Hepes, 0.1 M NaCl, 5% glycerol, 0.5% Tween-20, pH 7.8, 50 ng/ul BSA, 0.5 mM TCEP, 0.5 mM EDTA; 1 h on ice; 6% PAGE 0.5x TBE at 4 C.

Consider “GGGCUGUCCUCUUUUUUUUUUCAGGCGUCU [ORN.PyU]”, for which the binding signal in data set [1] and in data set [2] was below 5 % bound throughout.
As for GGGUCGCUUCUCCCCCCCCCUAGGCGUCU [ORN.PyC], the binding signal in data set [1] and in data set [2] was below 5 % bound throughout.
